From paper PMC9352930, “Structure-Guided Engineering of a Complement Component C3-Binding Nanobody Improves Specificity and Adds Cofactor Activity” (Frontiers in Immunology, 2022) come the findings set out here.

What all share (settings): both partners purified
Test [1] addresses T1, C3b (proteolytic fragment of complement component C3) (human, UniProt P01024).
T1 construct: complement component C3, human, beta chain; complement component C3, human, alpha' chain (alpha chain after release of C3a); also called human C3b; source: generated from native plasma C3 by trypsin cleavage, purified
Nature of the test: SPR; biotinylated C-terminally avi-tagged nanobody on streptavidin (CM500M chip); native C3, C3b and C3MA injected at 0.4-200 nM; 20 mM HEPES pH 7.5, 150 mM NaCl, 0.05% Tween 20, 25°C; 1:1 model; KD for native C3 called apparent. Background: In SPR one partner is held on a chip, and binding of the other changes the refractive index at the surface.

For test [2], the target named is T1, C3b (proteolytic fragment of complement …). Nature of the test: BLI; kinetics: EWE, EWEµH or EWEnH held on anti-penta his (His1K) biosensors, dilution series of C3b or iC3b; 20 mM HEPES pH 7.5, 150 mM NaCl, 30°C; 1:1 model.
The target of another test is T2, iC3b (human).
T2 construct: complement component C3, human, beta chain; it says only that FI degrades C3b to iC3b; copies: + +
T2 sequence (chain, as listed by the source, chain 1 of 3): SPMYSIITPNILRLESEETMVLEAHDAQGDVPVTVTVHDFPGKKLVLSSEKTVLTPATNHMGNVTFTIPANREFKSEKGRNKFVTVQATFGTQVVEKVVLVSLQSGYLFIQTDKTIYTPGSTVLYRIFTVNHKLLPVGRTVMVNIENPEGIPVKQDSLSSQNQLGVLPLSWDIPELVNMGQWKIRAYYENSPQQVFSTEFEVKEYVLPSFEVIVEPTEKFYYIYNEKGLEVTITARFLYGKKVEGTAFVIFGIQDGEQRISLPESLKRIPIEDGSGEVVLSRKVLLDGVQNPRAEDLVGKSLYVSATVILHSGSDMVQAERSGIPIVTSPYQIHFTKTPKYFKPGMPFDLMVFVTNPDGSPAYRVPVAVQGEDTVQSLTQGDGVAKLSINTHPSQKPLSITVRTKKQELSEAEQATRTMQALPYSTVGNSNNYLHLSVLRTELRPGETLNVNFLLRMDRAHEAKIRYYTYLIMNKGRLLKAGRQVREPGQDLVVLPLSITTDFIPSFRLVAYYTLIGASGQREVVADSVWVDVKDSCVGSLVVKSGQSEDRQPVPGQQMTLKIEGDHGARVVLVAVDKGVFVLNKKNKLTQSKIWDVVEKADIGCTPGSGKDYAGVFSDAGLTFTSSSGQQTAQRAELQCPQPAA
T2 sequence (chain, as listed by the source, chain 2 of 3): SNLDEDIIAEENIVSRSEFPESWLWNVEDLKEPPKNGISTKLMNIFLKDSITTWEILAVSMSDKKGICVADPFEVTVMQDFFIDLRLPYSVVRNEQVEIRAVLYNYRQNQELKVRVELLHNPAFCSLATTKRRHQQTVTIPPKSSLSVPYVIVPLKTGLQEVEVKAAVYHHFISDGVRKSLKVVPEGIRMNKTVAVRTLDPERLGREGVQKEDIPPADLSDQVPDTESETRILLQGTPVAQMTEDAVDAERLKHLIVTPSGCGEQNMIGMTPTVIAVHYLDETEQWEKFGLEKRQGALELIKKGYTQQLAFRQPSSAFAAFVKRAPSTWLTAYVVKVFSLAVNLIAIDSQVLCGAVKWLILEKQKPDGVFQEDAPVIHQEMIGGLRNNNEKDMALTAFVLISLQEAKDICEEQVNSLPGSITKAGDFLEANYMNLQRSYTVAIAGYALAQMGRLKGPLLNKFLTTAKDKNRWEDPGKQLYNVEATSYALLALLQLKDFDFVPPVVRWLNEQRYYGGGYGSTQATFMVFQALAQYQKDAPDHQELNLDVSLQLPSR
T2 sequence (chain, as listed by the source, chain 3 of 3): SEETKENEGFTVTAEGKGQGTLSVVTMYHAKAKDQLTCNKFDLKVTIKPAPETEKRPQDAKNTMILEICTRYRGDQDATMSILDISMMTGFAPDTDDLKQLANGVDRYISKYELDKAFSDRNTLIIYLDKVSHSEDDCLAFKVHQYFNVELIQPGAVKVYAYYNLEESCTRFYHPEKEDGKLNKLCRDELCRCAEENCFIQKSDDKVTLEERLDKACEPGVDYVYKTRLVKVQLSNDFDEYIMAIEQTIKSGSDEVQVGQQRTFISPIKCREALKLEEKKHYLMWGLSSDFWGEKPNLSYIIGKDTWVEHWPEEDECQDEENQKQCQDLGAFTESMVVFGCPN
The test is described as above.

Test [3] has as its target T1, C3b (proteolytic fragment of complement …). Nature of the test: SEC; C3 or C3b mixed with a two-fold molar excess of nanobody, 5 min on ice; Superdex 200 increase, 20 mM HEPES pH 7.5, 150 mM NaCl; peak fractions on SDS-PAGE. A general note: Size exclusion chromatography separates by hydrodynamic size, large species first.
Test [4] shares this target. Nature of the test: BLI; single concentration: nanobody variant held on anti-penta his (His1K) biosensors, transferred into 50 nM C3 or C3b for 180 s; 20 mM HEPES pH 7.5, 150 mM NaCl, 30°C. In general terms: In BLI a coated tip is dipped into the sample, and binding shifts an interference pattern.

Where a chain is given by its changes, count along the chain named.

B1: avi-tagged, biotinylated EWE nanobody (VHH)
VHH: QVQLVETGGGLVQAGGSLRLSCAASGSIFSINAMGWFRQAPGKEREFVATINRSGGRTYYADSVKGRFTISRDNGKNMVYLQMHSLKPEDTAIYYCAAGTGWSPQTDNEYNYWGQGTQVTVSS
notes: hC3Nb1 nanobody; as the nanobody piece of m6; also called avi-tagged version of EWE; source: purified similarly to EWE (bacteria; HisTrap, Source 15S, SEC) and biotinylated; not shown: Avi tag, C-terminal, kept
Regarding B1, the Kd in test [1] was determined as 2.2 nM.

B2: EWE-hC3Nb1 nanobody, bacterially expressed (VHH)
VHH: B1 VHH
notes: hC3Nb1 nanobody, beginning with its N-terminal glutamine (Gln4 of EWE); as the nanobody piece of m6; also called EWE nanobody; source: LOBSTR cells (bacteria), purified (HisTrap, Source 15S, SEC); not shown: 6xHis, C-terminal, kept
As to B2, the Kd in test [2] worked out at 3 nM; in the test with iC3b, 3.6 nM.

B3: hC3Nb1 nanobody, bacterially expressed (VHH)
VHH: B1 VHH with I31L
notes: N-terminal methionine, retained according to mass spectrometry; hC3Nb1 nanobody; in the PDB entries of its complexes with C3b (6EHG) and C3 (6RU5); pET-22b(+) plasmid; Held on anti-penta-His sensors in BLI; also called parental hC3Nb1; hC3bNb1; source: LOBSTR cells (bacteria), purified (HisTrap, Source 15S, SEC)
Take B3: the binding result in test [3] is “binds”.

B4: hC3Nb1 nanobody, mammalian expressed (VHH)
VHH: B1 VHH with I31L
notes: hC3Nb1 nanobody without the N-terminal methionine; in the PDB entries 6EHG and 6RU5; pcDNA 3.1 vector; The calculated mass differs from that of the bacterial construct by more than a methionine, so tag or ends may differ; source: HEK293, transiently transfected, purified from conditioned media (HisTrap excel, ion exchange, SEC)
As to B4, in test [4], the binding result was “binds”.

B5: hC3Nb1 Q1N (VHH)
VHH: B1 VHH with Q1N, I31L
notes: hC3Nb1 nanobody with the N-terminal glutamine mutated to asparagine; parent as the nanobody piece of m6; The printed calculated mass (14182.7) fits a protein without the N-terminal methionine (my reckoning against 14327.9 for m6); source: expressed in bacteria, purified
As for B5, the binding result in test [4] was “binds”.

B6: hC3Nb1 ΔQ1 (VHH)
VHH: VQLVETGGGLVQAGGSLRLSCAASGSIFSLNAMGWFRQAPGKEREFVATINRSGGRTYYADSVKGRFTISRDNGKNMVYLQMHSLKPEDTAIYYCAAGTGWSPQTDNEYNYWGQGTQVTVSS
notes: hC3Nb1 nanobody with the N-terminal glutamine deleted; parent as the nanobody piece of m6; The printed calculated mass (14068.6) fits a protein without the N-terminal methionine (my reckoning against 14327.9 for m6); source: expressed in bacteria, purified
For the molecule B6, the binding result in test [4] is on record as “binds”.
